From publication PMC6520365, “Structural and functional characterization of the PDZ domain of the human phosphatase PTPN3 and its interaction with the human papillomavirus E6 oncoprotein” (Scientific Reports, 2019)

Key:
[1] = molecular target: PDZ domain of the human protein tyrosine phosphatase non-receptor type 3 (PTPN3-PDZ) (human) (UniProt P26045); experiment: AUC; sedimentation velocity, PTPN3-PDZ alone at 25 μM, 20 °C, 42000 rpm; monomer and dimer peaks
p38γ PBM (Homo sapiens) = conditions: cited from earlier work

Sequence of PTPN4 PDZ (P29074 514-592): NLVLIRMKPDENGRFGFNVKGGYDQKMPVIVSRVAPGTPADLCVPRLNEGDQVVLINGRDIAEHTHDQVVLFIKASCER

Row | stoichiometry N [1] | Substance | Kd (p38γ PBM (Homo sapiens)) [nM]
1 | 2 | PDZ domain of the human protein tyrosine phosphatase non-receptor type 3 (PTPN3-PDZ) (from UniProt P26045-1 504-913) (domain or fragment) | –
2 | – | PTPN4 PDZ (from UniProt P29074) | 1600
